From patent publication US20220184124A1 come the findings set out here.

The target in this test is CD19 on Daudi cells (CD19 positive target tumor cells) (UniProt P15391). Put plainly: cell-based or functional assay.
Sequence of UniProt P15391 (P15391 20-556 limits assumed): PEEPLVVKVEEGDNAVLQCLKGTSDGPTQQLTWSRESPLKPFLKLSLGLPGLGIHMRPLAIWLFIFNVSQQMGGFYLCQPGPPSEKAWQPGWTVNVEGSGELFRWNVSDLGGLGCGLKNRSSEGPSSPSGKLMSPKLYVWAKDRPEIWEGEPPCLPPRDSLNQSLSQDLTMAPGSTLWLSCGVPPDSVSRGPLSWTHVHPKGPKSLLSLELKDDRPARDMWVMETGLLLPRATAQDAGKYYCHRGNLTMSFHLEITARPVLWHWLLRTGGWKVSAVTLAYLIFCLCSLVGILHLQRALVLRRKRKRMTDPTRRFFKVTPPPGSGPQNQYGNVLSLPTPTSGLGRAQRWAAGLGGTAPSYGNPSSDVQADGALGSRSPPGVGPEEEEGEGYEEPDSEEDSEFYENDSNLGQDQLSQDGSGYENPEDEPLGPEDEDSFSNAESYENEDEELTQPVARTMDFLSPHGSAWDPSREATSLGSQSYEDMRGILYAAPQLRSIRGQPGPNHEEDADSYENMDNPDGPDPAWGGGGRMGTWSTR

Regarding “CD19(4G7) scFv/4-1BB/CD3ζ CAR (receptor)”, the % CD107a+ of CD4+ T cells, 6 hr co-culture with Daudi cells turned out to be 30.4%; the % CD107a+ of CD8+ T cells, 6 hr co-culture with Daudi cells was 44.6%; the % CD107a+ of NK cells (CD5-CD56+), co-culture with Daudi cells was 32.5%; the % CD107a+ of NKT cells, 6 hr co-culture with Daudi cells amounted to 48.6%. This substance also gave a % CD107a+ of TCRγδ T cells, co-culture with Daudi cells of 23.2%; a % CD107a+ of residual TCRαβ+ cells, 6 hr co-culture with Daudi cells of 64.8%; a % IFNγ+ of CD8+ T cells, co-culture with Daudi cells of 16.7%; a % IFNγ+ of NKT cells, co-culture with Daudi cells of 24.8%. The % IFNγ+ of TCRγδ T cells, co-culture with Daudi cells turned out to be 7.46%; the % IFNγ+ of residual TCRαβ+ cells, co-culture with Daudi cells was 50.9%; the % IL2+ of CD8+ T cells, co-culture with Daudi cells worked out at 0.69%; the % IL2+ of NKT cells, co-culture with Daudi cells was found to be 1.07%. In addition, the % IL2+ of TCRγδ T cells, co-culture with Daudi cells is 0.23%; the % IL2+ of residual TCRαβ+ cells, co-culture with Daudi cells amounted to 13.9%; the % TNFα+ of CD8+ T cells, co-culture with Daudi cells was found to be 21.5%; the % TNFα+ of NKT cells, co-culture with Daudi cells turned out to be 28.3%. The same substance showed a % TNFα+ of TCRγδ T cells, co-culture with Daudi cells of 12.9% and a % TNFα+ of residual TCRαβ+ cells, co-culture with Daudi cells of 50%.
